The target in assay [1] is T1, E200-300 peptide (complex peptide epitope of human P2X7 receptor).
T1 peptide: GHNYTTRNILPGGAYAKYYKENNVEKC
Description: ELISA; Fab. In general terms: ELISA stands for enzyme-linked immunosorbent assay.

In assay [2] the target is T2, E200-300 peptide (complex peptide epitope of human P2X7 receptor) (human).
T2 construct: also called antigen E200-300
T2 peptide: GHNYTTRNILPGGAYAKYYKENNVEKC
Description: ELISA on the E200-300 epitope target.

Assay [3] deals with T2, E200-300 peptide (complex peptide …). Description: method not stated.

B1: 2F6 WT recombinant Fab (Fab, V domains shown)
VH: DVKLVESGGGLVKLGGSLKLSCAASGFTFSSYYMSWVRQTPEKRLELVAAINSNGGSTYYPDTVKGRFTISRDNAKNTLYLQMSSLKSEDTAFYYCTRHYSSRFFDVWGAGTTVTVSS
VL: DIVMTQSQKFMSTSVGDRVSVTCKASQNVGTNVAWYQQKPGQSPKALIYSASFRYSGVPDRFTGSGSGTDFTLTISNVQSEDLAEFFCQQYNSYPFTFGSGTRLEIK
For the molecule B1, the EC50 in assay [1] is ~250 µg/mL.

B2: 2F6 IgM antibody (original mouse hybridoma antibody, IgM class with Kappa light chains) (antibody, V domains shown)
VH: DVKLVESGGGLVKLGGSLKLSCAASGFTFSSYYMSWVRQTPEKRLELVAAINSNGGSTYYPDTVKGRFTISRDNAKNTLYLQMSSLKSEDTAFYYCTRHYSSRFFDVWGAGTTVTVSS
VL: DIVMTQSQKFMSTSVGDRVSVTCKASQNVGTNVAWYQQKPGQSPKALIYSASFRYSGVPDRFTGSGSGTDFTLTISNVQSEDLAEFFCQQYNSYPFTFGSGTRLEIK
notes: Mouse IgM, kappa light chain, grown in mouse ascites; also called original IgM; IgM form of the original antibody
In turn, B2 came in with an EC50 in assay [2] of 0.14 µg/mL.

B3: recombinant 2F6 mouse IgG2a (antibody, V domains shown)
VH: DVKLVESGGGLVKLGGSLKLSCAASGFTFSSYYMSWVRQTPEKRLELVAAINSNGGSTYYPDTVKGRFTISRDNAKNTLYLQMSSLKSEDTAFYYCTRHYSSRFFDVWGAGTTVTVSS
VL: DIVMTQSQKFMSTSVGDRVSVTCKASQNVGTNVAWYQQKPGQSPKALIYSASFRYSGVPDRFTGSGSGTDFTLTISNVQSEDLAEFFCQQYNSYPFTFGSGTRLEIK
notes: also called 2F6 mIgG2a; mouse IgG2a-2F6
Regarding B3, the response in assay [2] was half-maximal at 1.6 µg/mL (EC50).

B4: 2F6 hIgG1 (antibody, V domains shown)
VH: DVKLVESGGGLVKLGGSLKLSCAASGFTFSSYYMSWVRQTPEKRLELVAAINSNGGSTYYPDTVKGRFTISRDNAKNTLYLQMSSLKSEDTAFYYCTRHYSSRFFDVWGAGTTVTVSS
VL: DIVMTQSQKFMSTSVGDRVSVTCKASQNVGTNVAWYQQKPGQSPKALIYSASFRYSGVPDRFTGSGSGTDFTLTISNVQSEDLAEFFCQQYNSYPFTFGSGTRLEIK
Regarding B4, in assay [3], the Kd is 50 nM.

Usually EC50 stands for the concentration giving half of the maximal effect. Higher therefore signals weaker potency. Broadly, the Kd is the concentration at which binding is half-saturated.

The values above are taken from patent US20150218283A1 (BIOSCEPTRE INTERNATIONAL, published 2015).
